Article PMC4655416

Experiments:
[1] = molecular target: CeHsp90-MC (middle and C-terminal domains of C. elegans Hsp90) (C. elegans); assay: AUC; sedimentation velocity with UV/VIS absorbance optics (OD280); PPH-5 titrated to a constant concentration of CeHsp90 (4 μM) or CeHsp90-MC (3.5 μM); global fit to sequential binding of a first and second PPH-5
[2] = molecular target: CeHsp90-MC (middle and C-terminal domains of C. elegans Hsp90) (C. elegans)

- stoichiometry N (PPH-5 per CeHsp90-MC dimer) [1]: 2
- kcat of PPH-5 towards the model peptide KRpTIRR (50 μM) with 3 μM Hsp90-MC [2]: 0.161 s⁻¹
B1: protein phosphatase 5 from C. elegans (PPH-5) (enzyme)
chain: MAATITDDIVATVLESIEEKSYEDEKEKAGMIKDEANQFFKDQVYDVAADLYSVAIEIHPTAVLYGNRAQAYLKKELYGSALEDADNAIAIDPSYVKGFYRRATANMALGRFKKALTDYQAVVKVCPNDKDARAKFDECSKIVRRQKFEAAISTDHDKKTVAETLDINAMAIEDSYDGPRLEDKITKEFVLQLIKTFKNQQKLHKKYAFKMLLEFYNYVKSLPTMVEITVPTGKKFTICGDVHGQFYDLCNIFEINGYPSETNPYLFNGDFVDRGSFSVETIFTMIGFKLLYPNHFFMSRGNHESDVMNKMYGFEGEVKAKYTQQMCDMFTETFCWLPLCHLINEKIFVCHGGLFKEDGVTLEDIRKTDRNRQPPDEGIMCDLLWSDPQPINGRSPSKRGVGCQFGPDVTSKWCETNGIEYVVRSHEVKPEGYEMHHNGQCFTVFSAPNYCDQMNNKGAFITITGDNLTPRFTPFDAVPHPKLPPMAYANSLFGFN
